Legend:
[1] = system: TGF-β signaling; test: p3TP-luciferase reporter gene assay in HT1080 cells; format: cell-based, human; conditions: expression in HT1080 cells; TGF-β1 0-5 ng/ml
Protocol: (§1) Analysis of luciferase activity driven by the synthetic p3TP reporter ((26); generously provided by Dr. Joan Massague, Sloan Kettering) was performed as described previously (42). Briefly, control, CystC-, or Δ14CystC-expressing 3T3-L1 or HT1080 cells were cultured onto 24-well plates at a density of 45,000 cells/well and allowed to adhere overnight. The cells were transiently transfected the following morning by overnight exposure to LT1 liposomes (Mirus) containing 300 ng/well p3TP-luciferase and 100 ng/well of pCMV-β-gal. Afterward, the cells were washed twice with PBS and stimulated overnight in serum-free media with increasing concentrations of TGF-β1 as indicated. The following morning, luciferase and β-gal activities contained in detergent-solubilized cell extracts were determined.
The inventor therefore hypothesized that CystC expression might impact TGF-β signaling via a cathepsin B-dependent mechanism. To test this hypothesis, changes in luciferase expression driven by the synthetic p3TP-luciferase reporter gene (26) were measured in control- and CystC-expressing HT1080 cells. Briefly, GFP-, CystC-, or Δ14CystC-expressing HT0180 cells were transiently transfected with p3TP-luciferase and pCMV-β-gal. The transfectants were stimulated with increasing concentrations of TGF-β1 (0-5 ng/ml) as indicated, and subsequently processed to measure luciferase and β-gal activities. […]

[2] = system: NMuMG cells; test: NMuMG cell invasion through Matrigel matrices; format: cell-based, murine; conditions: expression in NMuMG cells, 48 hours, p<0.05; for TGF-β1-enhanced NMuMG cell invasion: TGF-β1 5 ng/ml
Protocol: In another experiment, NMuMG cells were infected with ecotropic retrovirus encoding either GFP (i.e., control), CystC, or Δ14CystC, and subsequently were isolated by FACS-sorting for GFP expression to yield stable polyclonal populations of control, CystC, and Δ14CystC-expressing cells. The expression and secretion of recombinant CystC proteins by infected NMuMG and NRK cells was monitored by immunoblotting conditioned-media with anti-CystC antibodies. The same cells were incubated in the absence or presence of TGF-β1 (5 ng/ml) for 8 hours, whereupon alterations in actin cytoskeletal architecture was visualized by direct rhodamine-phalloidin immunofluorescence. Next, the control, CystC-, and Δ14CystC-expressing NMuMG cells were incubated in the absence or presence of TGF-β1 (5 ng/ml) for 36 hours, whereupon E-cadherin expression was monitored by immunoblotting with anti-E-Cadherin antibodies. Finally, control, CystC-, and Δ14CystC-expressing NMuMG cells were allowed to invade through Matrigel matrices in the absence or presence of TGF-β1 (5 ng/ml) for 48 hours.

[3] = system: HT1080 fibrosarcoma cells; test: HT1080 cell invasion through Matrigel matrices; format: cell-based, human; conditions: retroviral expression in HT1080 cells; 48 hr; relative to GFP-expressing cells; p<0.05
Protocol: The effect CystC and D14CystC on the invasion of HT1080 and 3T3-L1 cells was determined as described previously (42). Briefly, upper chambers were coated with 100 μl of diluted Matrigel (1:50 in serum-free media), which was allowed to evaporate to dryness overnight at room temperature. The following morning the Matrigel mixtures were rehydrated and subsequently cultured with control-, CystC-, or D14CystC-expressing HT1080 or 3T3-L1 cells at a density of 100,000 cells/chamber. Cellular invasion was stimulated by addition of 2% serum to the lower chambers. Forty-eight hr later, the cells were washed twice in ice-cold PBS and immediately fixed for 15 min with 95% ethanol. Cells remaining in the upper chambers were removed with a cotton swab, whereas those remaining in the lower chamber were stained with crystal violet. Quantifying invading cells was determined through two independent measures, which yielded identical results: (i) manual counting under a light microscope, and (ii) crystal violet dye extraction by incubation of the membranes in 10% acetic acid, followed by spectrophotometry at 590 nm.
Cathepsin B is a lysosomal cysteine proteinase that functions in intracellular protein catabolism, as well as in bone resorption, hormone activation, and antigen processing (5). During tumorigenesis, cancer cells express a cathepsin B splice variant whose protein product is secreted into the extracellular milieu (5) and localized to the leading edge of invasive tumors (19), thereby promoting cancer cell invasion and metastasis. However, recent evidence has questioned the role of intracellular versus extracellular cathepsin B in promoting cancer cell invasion (20). To distinguish between these two possibilities, human HT1080 fibrosarcoma cells that stably express the murine ecotropic receptor (21) were infected with control (i.e., GFP), CystC, or Δ14CystC retrovirus. Afterward, cells that expressed GFP were isolated by flow cytometry to establish stable polyclonal populations of control-, CystC-, and Δ14CystC-expressing HT1080 cells (data not shown). The inventor chose to study HT1080 cells because they are highly invasive, and because they express large quantities of secreted cathepsin B and comparably little CystC (22). Thus, if extracellular cathepsin B mediates HT1080 cell invasion, it was hypothesized that overexpression of secreted CystC would attenuate their invasion through synthetic basement membranes.
Briefly, GFP-, CystC-, or Δ14CystC-expressing HT0180 cells were allowed to invade through Matrigel-coated membranes for 48 hr. Data shown in FIG. 1A are the mean (±SE) of three (Δ14CystC) and nine (GFP and CystC) independent experiments presented as the percent invasion relative to GFP-expressing HT1080 cells (***, p<0.05; Student's T-Test).

[4] = system: HT1080 cells; test: DNA synthesis in HT1080 cells; format: cell-based, human; conditions: overexpression in HT1080 cells; data not shown
[5] = system: TGF-β signaling; test: p3TP-luciferase reporter gene assay in 3T3-L1 cells; format: cell-based, murine; conditions: expression in 3T3-L1 cells; TGF-β1 0-5 ng/ml; compared to control cells
Protocol: as §1
In some experiments, the effects of recombinant CystC and D14CystC on p3TP-luciferase activity 3T3-L1 cells was determined. […] All subsequent procedures were performed as described above.
The present inventor's findings that TGF-β signaling was inhibited by CystC (FIGS. 1 and 2) independent of its actions on cathepsin B lead them to hypothesize CystC as a general antagonist of TGF-β signaling. To test this hypothesis, changes in p3TP-driven luciferase activity were monitored in control, CystC-, Δ14CystC-expressing cells before and after their stimulation with TGF-β. Briefly, GFP-, CystC-, or Δ14CystC-expressing 3T3-L1 cells were transiently transfected with p3TP-luciferase and pCMV-β-gal, and subsequently stimulated with increasing concentrations of TGF-β1 (0-5 ng/ml) as indicated in FIG. 3A. Afterward, luciferase and β-gal activities contained in detergent-solubilized cell extracts were measured. […] Data are the mean (±SE) luciferase activities of four independent experiments normalized to untreated GFP-expressing cells.
The transfectants were then stimulated with TGF-β1 (5 ng/ml) in the absence or presence of recombinant (10 mg/ml) GST, GST-CystC, or GST-D14CystC as indicated in FIG. 3B. […]

Row | Molecule | TGF-β-stimulated luciferase activity driven by the p3TP promoter [1] | TGF-β1-enhanced NMuMG cell invasion [2] | HT1080 cell invasion through Matrigel matrices [3] | synthesis of DNA in HT1080 cells [4] | TGF-β-stimulated luciferase activity (p3TP) [5] | tonic NMuMG cell invasion [2]
1 | Δ14CystC: human CystC with deletion of positions 80 to 93 (conserved cysteine proteinase inhibitor motif), retrovirally expressed and secreted (protein, left off: small tags and cut ends) MAGPLRAPLLLLAILAVALAVSPAAGSSPGKPPRLVGGPMDASVEEEGVRRALDFAVGEYNKASNDMYHSRALQVVRARLGRTTCTKTQPNLDNCPFHDQPHLKRKAFCSFQIYAVPWQGTMTLSKSTCQDA | equally effective as CystC | inhibited significantly | failed to affect | failed to effect | significantly reduced | 
2 | CystC: full-length human Cystatin C (SEQ ID NO:2), C-terminally Myc- and (His)6-tagged, retrovirally expressed and secreted by the cells (protein, listed as Homo sapiens, C-terminal Myc and His6 tags) MAGPLRAPLLLLAILAVALAVSPAAGSSPGKPPRLVGGPMDASVEEEGVRRALDFAVGEYNKASNDMYHSRALQVVRARKQIVAGVNYFLDVELGRTTCTKTQPNLDNCPFHDQPHLKRKAFCSFQIYAVPWQGTMTLSKSTCQDA | significantly inhibited | inhibited significantly | significantly inhibited | failed to effect | significantly reduced | significantly inhibited

From patent US8058396B2, “Cystatin C as an antagonist of TGF-β and methods related thereto” (National Jewish Health, priority 2003, dated 2011)
